Test results taken from US20180155451A1 (published 2018).

T1: FcgRIIa H (human, UniProt P12318 34-217)
T1 construct: extracellular domain; also called FcγRIIa H; FcγRIIa type H; not shown: His tag attached to the C terminus
T1 sequence (looked up): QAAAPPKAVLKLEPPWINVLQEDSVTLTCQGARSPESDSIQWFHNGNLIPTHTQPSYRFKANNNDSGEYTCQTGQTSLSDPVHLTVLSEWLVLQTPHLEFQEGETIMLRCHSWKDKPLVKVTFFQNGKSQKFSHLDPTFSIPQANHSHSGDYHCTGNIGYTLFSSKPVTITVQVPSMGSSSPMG

T2: FcgRIIb (human, UniProt P31994 43-217)
T2 construct: extracellular domain; also called FcγRIIb; not shown: His tag attached to the C terminus
T2 sequence (looked up): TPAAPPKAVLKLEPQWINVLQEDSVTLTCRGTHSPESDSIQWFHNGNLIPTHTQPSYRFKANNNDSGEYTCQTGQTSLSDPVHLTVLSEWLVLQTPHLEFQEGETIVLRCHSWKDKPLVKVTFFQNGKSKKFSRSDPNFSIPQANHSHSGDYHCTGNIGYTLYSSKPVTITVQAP

T3: FcgRIIa R (human, UniProt P12318 34-217)
T3 construct: extracellular domain; also called FcγRIIa R; FcγRIIa type R; not shown: His tag attached to the C terminus
T3 sequence (looked up): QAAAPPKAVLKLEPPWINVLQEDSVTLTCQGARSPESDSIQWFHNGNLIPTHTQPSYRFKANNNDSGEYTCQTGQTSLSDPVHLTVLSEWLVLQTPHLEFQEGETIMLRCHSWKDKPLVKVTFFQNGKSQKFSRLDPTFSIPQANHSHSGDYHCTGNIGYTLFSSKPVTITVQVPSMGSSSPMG


Assays:
Assay in all cases: SPR (Biacore); KD of H240-Kn061/H240-Hl071/L73-k0 divided by KD of the variant
FcgRIIIa F = biological target: T4, FcgRIIIa F (human, UniProt P08637 17-208)
T4 construct: extracellular domain; also called FcγRIIIa F; 3aF; not shown: His tag attached to the C terminus
Description: (§1) The antibodies were assessed for the binding to each FcgR. […] The resultant value was defined as relative KD, and used as an assessment indicator.
(§2) Analysis of interaction between obj ective antibody and the FcγR was carried out using Biacore T100 (GE Healthcare), Biacore T200, Biacore A100, and Biacore 4000. HBS-EP+ (GE Healthcare) was used as the running buffer, and the measurement temperature was set to 25° C. Chips produced by immobilizing the antigen peptide by the amine coupling method to a Series S sensor Chip CM5 (GE Healthcare), chips produced by allowing preliminarily biotinylated antigen peptides to interact with and immobilize onto a Series S Sensor Chip SA (certified) (GE Healthcare), chips produced by immobilizing Protein L (ACTIGEN, BioVision) to Series S Sencor Chip CM5 (GE Healthcare), or chips produced by immobilizing Protein A/G (Thermo Scientific) to Series S Sencor Chip CM5 (GE Healthcare) were used. Antibodies of interest were captured onto these chips, and allowed to interact to each FcγR diluted with running buffer.

FcgRIIa H = biological target: T1, FcgRIIa H
Description: as §1, §2

FcgRIIb = biological target: T2, FcgRIIb
Description: as §1, §2

FcgRIIa R = biological target: T3, FcgRIIa R
Description: as §1, §2

FcgRIIIa V = biological target: T5, FcgRIIIa V (human, UniProt P08637 17-208)
T5 construct: extracellular domain; also called FcγRIIIa V; not shown: His tag attached to the C terminus
Description: as §1, §2

T4 sequence (P08637 17-208): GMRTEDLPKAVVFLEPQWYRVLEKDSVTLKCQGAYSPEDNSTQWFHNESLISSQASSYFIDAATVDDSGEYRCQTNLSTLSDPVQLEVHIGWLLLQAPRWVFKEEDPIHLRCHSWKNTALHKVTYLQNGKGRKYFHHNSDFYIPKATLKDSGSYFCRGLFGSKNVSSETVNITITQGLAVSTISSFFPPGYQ
T5 sequence (P08637 17-208 F176V limits assumed): as the sequence (P08637 17-208) above, with F160V counted along it

| Relative KD (FcgRIIIa F) | Relative KD (FcgRIIa H) | Relative KD (FcgRIIb) | Relative KD (FcgRIIa R) | Relative KD (FcgRIIIa V) | Binder |
| --- | --- | --- | --- | --- | --- |
| 1.3 | 1.6 | 1.6 | 1.6 | 1.5 | H240-Kn061 (A231V)/H240-Hl071/L73-k0 (antibody, human IgG1, kappa) heavy 1: QDQLVQSGAEVKKPGASVKVSCKASGFNIKDTYIQWVRQAPGQGLEWMGRIDPLRKQTKYREKFEGRVTITADTSTNTAYMELSSLRSEDTAVYYCVRSGREFDYWGQGTLVTVSSASTKGPSVFPLAPSSKSTSGGTAALGCLVKDYFPEPVTVSWNSGALTSGVHTFPAVLQSSGLYSLSSVVTVPSSSLGTQTYICNVNHKPSNTKVDKKVEPKSCDKTHTCPPCPVPEYYWGPSVFLFPPKPKDTLMISRTPEVTCVVVDVSDEDPEVKFNWYVDGVEVHNAKTKPREEQYNATYRVVSVLTVLHQDWLNGKEYKCKVSNKALPAPIEKTISKAKGQPREPQVCTLPPSRDELTKNQVSLWCLVKGFYPSDIAVEWESNGQPENNYKTTPPVLDSDGSFFLYSKLTVDKSRWQQGNVFSCSVMHEALHNHYTQKSLSLSP heavy 2: QDQLVQSGAEVKKPGASVKVSCKASGFNIKDTYIQWVRQAPGQGLEWMGRIDPLRKQTKYREKFEGRVTITADTSTNTAYMELSSLRSEDTAVYYCVRSGREFDYWGQGTLVTVSSASTKGPSVFPLAPSSKSTSGGTAALGCLVKDYFPEPVTVSWNSGALTSGVHTFPAVLQSSGLYSLSSVVTVPSSSLGTQTYICNVNHKPSNTKVDKKVEPKSCDKTHTCPPCPAPELLGGPSVFLFPPKPKDTLMISRTPEVTCVVVDVSHEDPEVKFNWYVDGVEVHNAKTKPREEQYNSTYRVVSVLTVLHQDWLNGKEYKCKVSNDALPMPIEETISKAKGQPREPQVYTLPPSRCELTKNQVSLSCAVKGFYPSDIAVEWESNGQPENNYKTTPPVLDSDGSFFLVSKLTVDKSRWQQGNVFSCSVMHEALHNHYTQKSLSLSP light: DIQMTQSPSSLSASVGDRVTITCRASQDIHKYIAWYQQKPGQAPRLLIQYTSTLQPGVPSRFSGSGSGTDYTFTISSLQPEDIATYYCLQYEQLRTFGGGTKVEIKRTVAAPSVFIFPPSDEQLKSGTASVVCLLNNFYPREAKVQWKVDNALQSGNSQESVTEQDSKDSTYSLSSTLTLSKADYEKHKVYACEVTHQGLSSPVTKSFNRGEC |
| 3.4 | 2.4 | 3.4 | 4.8 | 3.7 | H240-Kn061 (S239L)/H240-Hl071/L73-k0 (antibody, human IgG1, kappa) heavy 1: QDQLVQSGAEVKKPGASVKVSCKASGFNIKDTYIQWVRQAPGQGLEWMGRIDPLRKQTKYREKFEGRVTITADTSTNTAYMELSSLRSEDTAVYYCVRSGREFDYWGQGTLVTVSSASTKGPSVFPLAPSSKSTSGGTAALGCLVKDYFPEPVTVSWNSGALTSGVHTFPAVLQSSGLYSLSSVVTVPSSSLGTQTYICNVNHKPSNTKVDKKVEPKSCDKTHTCPPCPAPEYYWGPLVFLFPPKPKDTLMISRTPEVTCVVVDVSDEDPEVKFNWYVDGVEVHNAKTKPREEQYNATYRVVSVLTVLHQDWLNGKEYKCKVSNKALPAPIEKTISKAKGQPREPQVCTLPPSRDELTKNQVSLWCLVKGFYPSDIAVEWESNGQPENNYKTTPPVLDSDGSFFLYSKLTVDKSRWQQGNVFSCSVMHEALHNHYTQKSLSLSP heavy 2: QDQLVQSGAEVKKPGASVKVSCKASGFNIKDTYIQWVRQAPGQGLEWMGRIDPLRKQTKYREKFEGRVTITADTSTNTAYMELSSLRSEDTAVYYCVRSGREFDYWGQGTLVTVSSASTKGPSVFPLAPSSKSTSGGTAALGCLVKDYFPEPVTVSWNSGALTSGVHTFPAVLQSSGLYSLSSVVTVPSSSLGTQTYICNVNHKPSNTKVDKKVEPKSCDKTHTCPPCPAPELLGGPSVFLFPPKPKDTLMISRTPEVTCVVVDVSHEDPEVKFNWYVDGVEVHNAKTKPREEQYNSTYRVVSVLTVLHQDWLNGKEYKCKVSNDALPMPIEETISKAKGQPREPQVYTLPPSRCELTKNQVSLSCAVKGFYPSDIAVEWESNGQPENNYKTTPPVLDSDGSFFLVSKLTVDKSRWQQGNVFSCSVMHEALHNHYTQKSLSLSP light: DIQMTQSPSSLSASVGDRVTITCRASQDIHKYIAWYQQKPGQAPRLLIQYTSTLQPGVPSRFSGSGSGTDYTFTISSLQPEDIATYYCLQYEQLRTFGGGTKVEIKRTVAAPSVFIFPPSDEQLKSGTASVVCLLNNFYPREAKVQWKVDNALQSGNSQESVTEQDSKDSTYSLSSTLTLSKADYEKHKVYACEVTHQGLSSPVTKSFNRGEC |
| 3 | 2.1 | 3.1 | 4.4 | 3.4 | H240-Kn061 (S239I)/H240-Hl071/L73-k0 (antibody, human IgG1, kappa) heavy 1: QDQLVQSGAEVKKPGASVKVSCKASGFNIKDTYIQWVRQAPGQGLEWMGRIDPLRKQTKYREKFEGRVTITADTSTNTAYMELSSLRSEDTAVYYCVRSGREFDYWGQGTLVTVSSASTKGPSVFPLAPSSKSTSGGTAALGCLVKDYFPEPVTVSWNSGALTSGVHTFPAVLQSSGLYSLSSVVTVPSSSLGTQTYICNVNHKPSNTKVDKKVEPKSCDKTHTCPPCPAPEYYWGPIVFLFPPKPKDTLMISRTPEVTCVVVDVSDEDPEVKFNWYVDGVEVHNAKTKPREEQYNATYRVVSVLTVLHQDWLNGKEYKCKVSNKALPAPIEKTISKAKGQPREPQVCTLPPSRDELTKNQVSLWCLVKGFYPSDIAVEWESNGQPENNYKTTPPVLDSDGSFFLYSKLTVDKSRWQQGNVFSCSVMHEALHNHYTQKSLSLSP heavy 2: QDQLVQSGAEVKKPGASVKVSCKASGFNIKDTYIQWVRQAPGQGLEWMGRIDPLRKQTKYREKFEGRVTITADTSTNTAYMELSSLRSEDTAVYYCVRSGREFDYWGQGTLVTVSSASTKGPSVFPLAPSSKSTSGGTAALGCLVKDYFPEPVTVSWNSGALTSGVHTFPAVLQSSGLYSLSSVVTVPSSSLGTQTYICNVNHKPSNTKVDKKVEPKSCDKTHTCPPCPAPELLGGPSVFLFPPKPKDTLMISRTPEVTCVVVDVSHEDPEVKFNWYVDGVEVHNAKTKPREEQYNSTYRVVSVLTVLHQDWLNGKEYKCKVSNDALPMPIEETISKAKGQPREPQVYTLPPSRCELTKNQVSLSCAVKGFYPSDIAVEWESNGQPENNYKTTPPVLDSDGSFFLVSKLTVDKSRWQQGNVFSCSVMHEALHNHYTQKSLSLSP light: DIQMTQSPSSLSASVGDRVTITCRASQDIHKYIAWYQQKPGQAPRLLIQYTSTLQPGVPSRFSGSGSGTDYTFTISSLQPEDIATYYCLQYEQLRTFGGGTKVEIKRTVAAPSVFIFPPSDEQLKSGTASVVCLLNNFYPREAKVQWKVDNALQSGNSQESVTEQDSKDSTYSLSSTLTLSKADYEKHKVYACEVTHQGLSSPVTKSFNRGEC |
| 2.2 | 2 | 2.2 | 3.2 | 2.8 | H240-Kn061 (S239M)/H240-Hl071/L73-k0 (antibody, human IgG1, kappa) heavy 1: QDQLVQSGAEVKKPGASVKVSCKASGFNIKDTYIQWVRQAPGQGLEWMGRIDPLRKQTKYREKFEGRVTITADTSTNTAYMELSSLRSEDTAVYYCVRSGREFDYWGQGTLVTVSSASTKGPSVFPLAPSSKSTSGGTAALGCLVKDYFPEPVTVSWNSGALTSGVHTFPAVLQSSGLYSLSSVVTVPSSSLGTQTYICNVNHKPSNTKVDKKVEPKSCDKTHTCPPCPAPEYYWGPMVFLFPPKPKDTLMISRTPEVTCVVVDVSDEDPEVKFNWYVDGVEVHNAKTKPREEQYNATYRVVSVLTVLHQDWLNGKEYKCKVSNKALPAPIEKTISKAKGQPREPQVCTLPPSRDELTKNQVSLWCLVKGFYPSDIAVEWESNGQPENNYKTTPPVLDSDGSFFLYSKLTVDKSRWQQGNVFSCSVMHEALHNHYTQKSLSLSP heavy 2: QDQLVQSGAEVKKPGASVKVSCKASGFNIKDTYIQWVRQAPGQGLEWMGRIDPLRKQTKYREKFEGRVTITADTSTNTAYMELSSLRSEDTAVYYCVRSGREFDYWGQGTLVTVSSASTKGPSVFPLAPSSKSTSGGTAALGCLVKDYFPEPVTVSWNSGALTSGVHTFPAVLQSSGLYSLSSVVTVPSSSLGTQTYICNVNHKPSNTKVDKKVEPKSCDKTHTCPPCPAPELLGGPSVFLFPPKPKDTLMISRTPEVTCVVVDVSHEDPEVKFNWYVDGVEVHNAKTKPREEQYNSTYRVVSVLTVLHQDWLNGKEYKCKVSNDALPMPIEETISKAKGQPREPQVYTLPPSRCELTKNQVSLSCAVKGFYPSDIAVEWESNGQPENNYKTTPPVLDSDGSFFLVSKLTVDKSRWQQGNVFSCSVMHEALHNHYTQKSLSLSP light: DIQMTQSPSSLSASVGDRVTITCRASQDIHKYIAWYQQKPGQAPRLLIQYTSTLQPGVPSRFSGSGSGTDYTFTISSLQPEDIATYYCLQYEQLRTFGGGTKVEIKRTVAAPSVFIFPPSDEQLKSGTASVVCLLNNFYPREAKVQWKVDNALQSGNSQESVTEQDSKDSTYSLSSTLTLSKADYEKHKVYACEVTHQGLSSPVTKSFNRGEC |
